Assay results from publication PMC11377297, “Mechanical disengagement of the cohesin ring” (Nature Structural & Molecular Biology, 2023).

Target: T1, Smc1^Psm1-SNAP subunit of the fission yeast cohesin tetramer (head-tagged variant, TMR-labelled) (fission yeast, UniProt O94383 1-1228, TMR fluorophore on the SNAP-tag)
T1 construct: Psm1 (Smc1), fission yeast cohesin subunit; source: recombinant, purified as part of the cohesin tetramer; not shown: SNAP-tag, C-terminal, kept
T1 sequence (looked up): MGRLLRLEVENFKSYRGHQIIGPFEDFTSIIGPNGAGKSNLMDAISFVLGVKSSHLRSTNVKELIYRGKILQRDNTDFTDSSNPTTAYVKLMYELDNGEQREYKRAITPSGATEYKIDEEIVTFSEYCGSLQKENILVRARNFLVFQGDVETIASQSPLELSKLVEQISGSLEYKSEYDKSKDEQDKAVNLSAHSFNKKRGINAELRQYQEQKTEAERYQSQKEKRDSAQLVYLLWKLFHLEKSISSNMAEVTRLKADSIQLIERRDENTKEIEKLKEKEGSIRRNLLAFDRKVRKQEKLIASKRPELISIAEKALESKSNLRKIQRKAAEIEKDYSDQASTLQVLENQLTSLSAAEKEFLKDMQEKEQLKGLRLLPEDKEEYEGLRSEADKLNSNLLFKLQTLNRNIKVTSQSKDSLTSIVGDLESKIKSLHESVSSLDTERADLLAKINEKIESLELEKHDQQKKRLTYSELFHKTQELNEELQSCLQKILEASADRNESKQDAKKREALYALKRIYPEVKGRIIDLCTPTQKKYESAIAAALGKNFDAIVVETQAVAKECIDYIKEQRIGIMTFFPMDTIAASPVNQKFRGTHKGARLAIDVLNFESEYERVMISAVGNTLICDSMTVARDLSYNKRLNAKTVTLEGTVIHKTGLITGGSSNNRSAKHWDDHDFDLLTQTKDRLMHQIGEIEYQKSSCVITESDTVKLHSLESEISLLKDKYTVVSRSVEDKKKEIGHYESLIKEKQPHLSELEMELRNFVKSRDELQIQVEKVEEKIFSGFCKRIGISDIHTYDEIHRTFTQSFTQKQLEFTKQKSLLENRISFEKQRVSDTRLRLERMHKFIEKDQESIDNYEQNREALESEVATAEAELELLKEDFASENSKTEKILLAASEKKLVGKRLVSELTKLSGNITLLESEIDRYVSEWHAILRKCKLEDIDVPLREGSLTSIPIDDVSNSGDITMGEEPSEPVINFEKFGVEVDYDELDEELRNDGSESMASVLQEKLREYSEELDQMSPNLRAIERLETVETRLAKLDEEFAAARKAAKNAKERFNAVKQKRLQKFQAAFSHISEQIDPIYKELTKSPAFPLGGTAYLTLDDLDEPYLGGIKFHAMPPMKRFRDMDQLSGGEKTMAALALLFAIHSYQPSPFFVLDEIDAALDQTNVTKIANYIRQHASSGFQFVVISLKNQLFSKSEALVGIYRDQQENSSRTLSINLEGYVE
Test: co-purification of the recombinant complex (SDS-PAGE, Coomassie); purified cohesin complex resolved by SDS-PAGE; purification methods in the Supplementary Information

- binding result: binds
B1: Smc3^Psm3-CLIP-biotin subunit of the fission yeast cohesin tetramer (head-tagged variant) (natural protein, UniProt O42649 1-1194, looked up)
chain: MYITKIVIQGFKSYKDYTVIEPLSPHHNVIVGRNGSGKSNFFAAIRFVLSDAYTHLSREERQALLHEGPGATVMSAYVEVTFANADNRFPTGKSEVVLRRTIGLKKDEYSLDKKTVSKTEVINLLESAGFSRSNPYYIVPQGRVTSLTNAKDSERLELLKEVAGTQIYENRRAESNKIMDETIQKSEKIDELLQYIEERLRELEEEKNDLAVYHKKDNERRCLEYAIYSREHDEINSVLDALEQDRIAALERNDDDSGAFIQREERIERIKAEITELNHSLELLRVEKQQNDEDYTNIMKSKVALELQSSQLSRQIEFSKKDESSKLNILSELESKISEKENELSEILPKYNAIVSEADDLNKRIMLLKNQKQSLLDKQSRTSQFTTKKERDEWIRNQLLQINRNINSTKENSDYLKTEYDEMENELKAKLSRKKEIEISLESQGDRMSQLLANITSINERKENLTDKRKSLWREEAKLKSSIENVKDDLSRSEKALGTTMDRNTSNGIRAVKDIAERLKLEGYYGPLCELFKVDNRFKVAVEATAGNSLFHIVVDNDETATQILDVIYKENAGRVTFMPLNKLRPKAVTYPDASDALPLIQYLEFDPKFDAAIKQVFSKTIVCPSIETASQYARSHQLNGITLSGDRSDKKGALTAGYRDYRNSRLDAIKNVKTYQIKFSDLQESLEKCRSEIESFDQKITACLDDLQKAQLSLKQFERDHIPLKDELVTITGETTDLQESMHHKSRMLELVVLELHTLEQQANDLKSELSSEMDELDPKDVEALKSLSGQIENLSHEFDAIIKERAHIEARKTALEYELNTNLYLRRNPLKAEIGSDNRIDESELNSVKRSLLKYENKLQIIKSSSSGLEEQMQRINSEISDKRNELESLEELQHEVATRIEQDAKINERNAAKRSLLLARKKECNEKIKSLGVLPEEAFIKYVSTSSNAIVKKLHKINEALKDYGSVNKKAYEQFNNFTKQRDSLLARREELRRSQESISELTTVLDQRKDEAIERTFKQVAKSFSEIFVKLVPAGRGELVMNRRSELSQSIEQDISMDIDTPSQKSSIDNYTGISIRVSFNSKDDEQLNINQLSGGQKSLCALTLIFAIQRCDPAPFNILDECDANLDAQYRSAIAAMVKEMSKTSQFICTTFRPEMVKVADNFYGVMFNHKVSTVESISKEEAMAFVEG
modifications: biotin on the CLIP-tag
notes: Psm3 (Smc3), fission yeast cohesin subunit; source: recombinant, purified as part of the cohesin tetramer; not shown: CLIP-tag, C-terminal, kept
